Experimental data from the nanobody polyreactivity screen of Harvey et al. (2022).

Test: yeast display, Sf9 membrane polyspecificity reagent, FACS + sequencing; frameworks hold sequencing errors
Procedure, shortened: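 Polyreactivity labels are assigned by the sorting gate from which each nanobody was recovered. The gates were low and high (top ~1%), set on anti-HA fluorescence for expression and streptavidin fluorescence for reagent binding. Before sorting, galactose-induced (36–48 hours) yeast display cells were stained for 1 hour at 4 °C with 10% biotinylated, detergent-solubilized Sf9 membrane reagent.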

| Sequence | polyreactivity (PSR sort gate) |
| --- | --- |
| QVQLVESGGGLVQAGGSLRLICAASGFTFNFYAMGWYRQAPGKEMELVASITSSGARTYYADSVKGRFTISRDNAKNSVYLQMNSQKPEDTAVYYCAARVYRYSASRAYDYWGQGTQVTVSS | high polyreactivity |
| QVQLVESGGGLVQAGGSLRLICAASGFTFSKYGMVWYRQAPGKERELVAAISGSGGNTYYADSVKGRFTISRDNAKNTVYLLINSLKPEDTAVYYCNATWELLSYYYLFWGYDYWGQGTQVTVSS | low polyreactivity |
| QVQLVESGGGLVQAGGSLRLICAASGFTLYAYAMGWYRQAPGKERELVAAISDSGGDTYYADSVKGRFTISRDNAKNTVYLQMNSLKPEDTAVYYCAALYNHWWEYDYWGQGTQVTVSS | low polyreactivity |
| QVQLVESGGGLVQAGGSLRLICAASGFTYRGYAMGWYRQAPGKERELVAAISSSVGSTYYADAVKGRFTISRDNAKNTVYLQKISLKPEDTAVYYCAARKGYVIRYNYWGQGTQVTVSS | high polyreactivity |
| QVQLVESGGGLVQAGGSLRLICAASGGTFSHNDMGWYRQAPGKEMELVASINSGGSTNYADSVKGRFTISRDNAKNTVYLQMNSLKPEDSAVYYCAADVEGWTVESDVYRVGYDYWGHGTQVTVSS | low polyreactivity |
| QVQLVESGGGLVQAGGSLRLICAASGIIFAYNAMGWYRQAPGKESELVAAISVIGGTTYYADSVKGRFTMSRDNAKNTVYLRMNSLKPEDSAVYYCAVDSVQYGGGYERLHELYYWGQGTQVTVSS | low polyreactivity |
| QVQLVESGGGLVQAGGSLRLICAASGIIFDSYAMGWYSQEPGKERELVAAITSDSGRTYYADSVKGRFTISRDNAKNNVYLEMNSLKPEDTAVYYCAKRWDGPYDYWGQGTQVTVSS | low polyreactivity |
| QVQLVESGGGLVQAGGSLRLICAASGIIFDVYAMGWYRQAPGKERELVAAISYGGGTTYYADSVKGRFTISRDNAKNTVYLQMNSLKPEDTAVYYCAADSYRSIGDDYWGQGTQVTVSS | high polyreactivity |
| QVQLVESGGGLVQAGGSLRLICAASGIIFSEYAMGWYRQAPGKERELVAVITSGGSTYYADSVKGRFTISRDNAKNTVYLQMNSLKPEDTAVYYCAARGYRYPMYWGQGTQVTVSS | high polyreactivity |
| QVQLVESGGGLVQAGGSLRLICAASGIIFVRYVMGWYRQAPGKEMELVAAINWSGGSTYYADSVKGRFTISRDNAKYTVYLQMNSLKPEDTAVYFCCAGSARDDDYWGQGTQVTVSS | high polyreactivity |
| QVQLVESGGGLVQAGGSLRLICAASGITFRLNVMGWDRQAPGKERELVARISRAGSTKYADSVKGRFTISRDNAKNTVYLQMNCLKPEDTAVYYCNRYYRRATKVGYWGQGTQVTVSS | high polyreactivity |
| QVQLVESGGGLVQAGGSLRLICAASGITFYDYAMGWYRQAPGKERELVAVITRRGGSTYYADSVKGRFTISRDNAKNTVYLQMNSLKPEDTAVYYCAADWRGWSFVRGDDYWGQGTQVTVSS | high polyreactivity |
| QVQLVESGGGLVQAGGSLRLICAASGLIFAVYAMGWYRQAPGKERELVAGISASAASTYYADSVKGRFTISRDNAKNTVFLQMNSLNPEDTAVYYCAADFYWFWTYGTLWYGYEYWGLGTQVTVSS | high polyreactivity |
| QVQLVESGGGLVQAGGSLRLICAASGLIFDYYRMGWYRQATGKQRELVAAITSSGSRTYYADSVKGRFTISRDNAKKTVYLQMNSLNPEDTAVYFCARGGGRRKGLVDYWGQGTQVTVSS | low polyreactivity |
| QVQLVESGGGLVQAGGSLRLICAASGLIFYRYAMGWYRPEPGKERELVAVISRGGSTFYADSVKGRFTISRDNAKNTVYLQMNSLTPEDTAVYFCAAAQTSQAYRYWYYYWGQGTQVTVSW | high polyreactivity |
| QVQLVESGGGLVQAGGSLRLICAASGLTFGWYAMGWYRQAPGKERELVAAITYDGDSTYYADSVKGRFTISRDNAKNTVYLQMNSLKPEDTAVYYCAAEYGYGEMDSWGQGTQVTVSS | high polyreactivity |
| QVQLVESGGGLVQAGGSLRLICAASGLTFTPNAMGWYRQAPWKEREFVAAITWRGGRTYYADSVKGRFTISRDNAKNTVYLQMNSLKPEDTAVYYCAVTYRPTDQLDYWGQGTQVTVSS | high polyreactivity |
| QVQLVESGGGLVQAGGSLRLICAASGLTFVTYAMGWYRQAPGKERELVAAITWSVGGTTYYADSVKGRFTISRDNAKNTVYLQMNSLKPEDTAVYYCAAESYSYYYDYYYWGQGTQVTVSS | high polyreactivity |
| QVQLVESGGGLVQAGGSLRLICAASGNIFAVYAMGWYRQAPGKERELVAAITTGTNTYADSVKGRFTISRDNAKNNVYLQMNSLKPEDTAVYFCAARYYRPLDYWGQGTQVTVSS | low polyreactivity |
| QVQLVESGGGLVQAGGSLRLICAASGNIFYIYAMVWDRQAPWKERELVAAISWSCCSTYYADSVKGRFTISRDNAKNTVYCQMNSLKPEDTSVYYCDVEFTPKRWVSYRTMYSWGQGTQVTVSS | high polyreactivity |
| QVQLVESGGGLVQAGGSLRLICAASGNTFYGYAMGWYRQAPGKERELVASITLSGDSTYYADSVKGRFTISRDNAKNTVYVQMNSLKPEDTAVYYCAGVYTYPLGYYHDTYDYWGQGTQVTVSS | low polyreactivity |
| QVQLVESGGGLVQAGGSLRLICAASGRIFGPYAMGWYRQAPGKERELVASISYSGGSTYYADSVKGRFTISRDNAKNTVYLQMNSLKPDDTAVYYCAKGGYWRGYNYWGQGTQVTVSS | low polyreactivity |
